# Measurements taken from the DeepSol protein solubility set.
# Test: soluble on expression in E. coli; label from the status in PepcDB or PDB records
row,Sequence,soluble on expression in E. coli
1,MNPNHNEGLLELYTQAISLEALKDAEQFLENSLLGKDAQVERLLAQVLIEEQQIETNRKKIAQLRIEKEELEFDCANSDLKSLEQMQAERDELQRKCQPGQHTKSNHKSSEQLLRMKKETDALRAYMKKISQFED,not soluble
2,MNQEFFMLSQAMVEHLNEQINLEFFSSNLYLQMSAWCEDKGFDGAAEFLRAHAVEEMQHMQRLFTYVSETGALPILGAIAAPRHDFASLGEVFRETYQHEQKITQQINKLAHVAFTSQDYSTFNFLQWYVAEQHEEEKLFKGILDKLELVGEDGKALFFIDKDLAALAKKGSSSVMDAPAE,not soluble
3,MNQILNKLQHIKPIEIIIVADDRMSAIQSIPTFVECNVVVIEEKNKWKAPVHGAKVANGDVVLFLDGEDVIFSVELERFIEPLLKKEQDVILNNIDSVCFEKMRVEWPSIAMVYRKIVNDVLGRMDLKYDSMLSMPYAITKKAIKDIGYDILQNPILSQVTLIEKGWPLHSSSAITNTSLNNITSNNTSFYKNELTKLEVCEIKENVKALESWLQRKDDRGNYTDGGRKREVIEQLKKQKNYSLFHKGWGMNSSIYNGKQLSIIIPAQNEEATIKEVILEARKIEPKEIIVVINGSTDQTEAIAKQLGATVIVYEEALGHDVGRAIGAQEATGDILLFIDADFAIPAKDLHPLTKAVVDGVDIALNDLNLNLRFPLYIVNLYKYMLNIACNRKDLGVGSTIAVPHAISRKCLEGIGWDTLHTSCVAQVKAILEGYKVECVHFVDVMKPNRIRPQEHFATIGHPPAVLRITGDHLEGLSYLLKHRDFKDLF,not soluble
4,MNQQTVNVIGAGLAGSEAAWQLAKRGIQVKLYEMRPVKQTPAHHTDKFAELVCSNSLRSNTLANAVGVLKEEMRALDSAIIAAADECSVPAGGALAVDRHEFAASVTNRVKNHPNVTVINEEVTEIPEGPTIIATGPLTSESLSAQLKELTGEDYLYFYDAAAPIVEKDSLDMDKVYLKSRYDKGEAAYLNCPMTEEEFDRFHEALTSAETVPLKEFEKEIFFEGCMPIEVMAKRGKKTMLFGPMKPVGLEHPVTGKRPYAVVQLRQDDAAGTLYNIVGFQTHLKWGDQKEVLKLIPGLENVEIVRYGVMHRNTFINSPSLLKPTYQFKNRSDLFFAGQMTGVEGYVESAASGLVAGINAAKLVLGEELVIFPQETAIGSMAHYITTTNQKNFQPMNANFGLLKELPVKIKNKKERNEQYANRAIETIQTISKTILEHHHHHH,soluble
5,MNQRILSTLGFDKVKQQLLQFIVTAQGTNEVSELLPIADENKIQSWLNETQDGLKVQRLRGGIPIPKLENIQPHMKRIEIGADLNGIELAQVGRVLSTTSELTRFFDELSENEVDLEHHHHHH,not soluble
6,MNQTLETGTTTVGITLKDAVIMATERRVTMENFIMHKNGKKLFQIDTYTGMTIAGLVGDAQVLVRYMKAELELYRLQRRVNMPIEAVATLLSNMLNQVKYMPYMVQLLVGGIDTAPHVFSIDAAGGSVEDIYASTGSGSPFVYGVLESQYSEKMTVDEGVDLVIRAISAAKQRDSASGGMIDVAVITRKDGYVQLPTDQIESRIRKLGLILHHHHHH,soluble
7,MNQVEMTEFPVGKPQEALYGVASTPDGALWFTLAKGNAIGRLSPDGAVSRFPLPHTDGQPTTITCGPDGRPWFTLSSANAIGRLAPDGALRMFELPRPASRPFGIAGGHDGCLWFAEMAGDRIGRITIDGDIEEYDLPVKGGYPSCMAAGRDGLMWFTLNQAGAVGSISATAAPRIFPLGAADAAPVGIASDAQGALWIAQAGNGAIVRFDAGGRITEFPLHSRAARPHAIAADAAGNLWFTEWGANRIGRISEAGDLAGYELAAPGSEPHGIAIDPHGCVWAALETGRLVRLQASPRDLEHHHHHH,soluble
8,MNRARDWLEQARHNLRHAQGSLGLGDYAWACFAAQQAAEAALKGLHLARGQVAWGHSILDLLADLPEDVDVPEDLVEAAKVLDKYYIPTRYPDAHPAGPAARHYTRLEAEEALDLAQKILAFVEEKL,soluble
9,MNRIGFIGAGNMGTAMIRGLAQANLVKREEIIVGGRNLEKLKPLEAEFTGLQITTDTEKLVEQADIIILAVKPYTIPEILTSVKEKLTPDKIIISVAAGVTIQDLEELTSAKTKIVRVMPNTPALVGEAMSSVSPNTNVTSEELKEVTAIFTSFGEAEVVSENLMDAVIGVSGSSPAYVYMFIEALADGAVLSGMPRDKAYKFAAQAVLGAAKTVLETGEHPGKLKDMVTSPGGTTIEAVKSLENDGFRSAVINAVQAAAKKNSSMLEHHHHHH,soluble
10,MNRKAFLACVLMCVILTGCETAKKISEVIKNPDIQVGSLKEQPSEITVTLLTEPDTNTNAEGESAAVDVQLVYLTDDSKLQAADYDQIASTPLPDVLGKNYIDHQDFNLLPDTIKTLPPIKLDEKTQFIGVVAYFSDDQATEWKQIETVEGTGHHYRLLVHVRQSSIEMKKEDE,soluble
11,MNSASFLQSRLISRSFLVRRSLKRYSGLAKPYTFQQPTIYALSTPANQTSAIAIIRISGTHAKYIYNRLVDSSTVPPIRKAILRNIYSPSSCSVKPHDQKESKILLDTSLLLYFQAPYSFTGEDVLELHVHGGKAVVNSILKAIGSLHDRSSGKDIRFALPGDFSRRAFQNGKFDLTQLEGIKDLIDSETESQRRSALSSFNGDNKILFENWRETIIENMAQLTAIIDFADDNSQEIQNTDEIFHNVEKNIICLRDQIVTFMQKVEKSTILQNGIKLVLLGAPNVGKSSLVNSLTNDDISIVSDIPGTTRDSIDAMINVNGYKVIICDTAGIREKSSDKIEMLGIDRAKKKSVQSDLCLFIVDPTDLSKLLPEDILAHLSSKTFGNKRIIIVVNKSDLVSDDEMTKVLNKLQTRLGSKYPILSVSCKTKEGIESLISTLTSNFESLSQSSADASPVIVSKRVSEILKNDVLYGLEEFFKSKDFHNDIVLATENLRYASDGIAKITGQAIGIEEILDSVFSKFCIGK,not soluble
12,MNSGDNIIKKKSFTFAVRIVNLYKVLSSEIKEFVMSKQLLRSGTSVGANIREALNAQSKPGFIHKLAISQKECDETGYTNNVEFESMNTDAIELLKIVRSIIMTSKKNIIHNSLEHHHHHH,not soluble
13,MNSHDGSNFSNKFSAHKDVVEDLLRKDTVGLVTFQDFRARREYLERCAVAEAACQNASRRAEELETKKKRVKRANLSRLSFGDSLEDQEENSVEFAKITRFASSKKANGVGFNTSGQDIVKEPDVFSPKEEGFFGKQNRKIGMDPGVDTSFLPDRDREQEERLERERLKQQWLSEQERVKNEEIDIIYSIWDGRGQRKLLSCKKGTTIAKFLSIVQQKVSTLKHCKVEDLMFIKEDMIIPHHLSFYDLISMKARGKNGSLFCFDVHEDIRIRNDASVEKDDSHAAKVVERRWYERNKHIYPASMWEVFDVSKNYGRVQKDFFGN,soluble
14,MNSTQSRRVGLYGTGRAAAQLVGAIEASPHTLTTAIVFFDEQAGQDIGTLTGGRATGITATTDLEGAIRSGDFDVLAYAGLKGEVLHRAMELCADSGVDLVHACFVHPRVKLDPEMYSRLQKRAEETGARIVGTGMLPGFWLDVLPALLSSALPAPVSIIGESRSDITAWGRGVLADEMGLGTLADGQPGPVGGVLHESAEMIADILGLTGYESKVYGGYVTAHAATEVAGIQISPGDRVGFDEAATVVHDGRERVRIAWKGLPKGSFEGYERSLTVTAIGGDGSECTLSITPALDPYPGTAARIVHAVGALGALPGGQHTPVQLGI,not soluble
15,MNSTSIYILVALHPIITLTNMPNTAMEATELLKEIQKHDSQQAFRSLYDMYYDRFFRIAFYYLQRDEWAQEVILDVFTTLWNHRKSQLIPDDFNKYSYILIRNAALNYLEKEQRREASPLENMPEISSSNLSPEEQMMNEELFNIYENSLNELPERCRTIFIKVREEKQSYASVAEELNISPKTVDAQLQKAVTRLKEKINNYFRNRR,not soluble
16,MNTESSPFVFNVGTLVRGSAVPASVQQTGPSPVRIGPAMIAIPENGDVTVNATITPLGDALMVDADVSAELSGECVRCLQHMAPRAQFHVNEVFALTEDFITGDDGDGEDDDVTVITGDTVDILQAVIDEAGMSLPFNPQCEGGCVQSDSDVPEPDGIAGETELVDPRWAGLEKFL,not soluble
17,MNTKQSNSHSTPSTFEGAQIRQGKASQCKTLMVQGTTSDAGKTTLVAGLCRVFADLQVKVAPFKPQNMALNSAVTPCGGEIGRAQALQAKAARLALDVDFNPILLKPNSDTGAQVIVHGKALMHRSSSNMEASEYQDYKKVAMQAVLSSHQRLTQQYDLVVVEGAGSPAEINLRKGDIANMGFAEAVDCPVLIIADIDKGGVFAQLVGTLMLLSQSEQDRVVGFVINRFRGDIKLLESGLTWLEERTNKPVLGVLPYLHGLDISSEDALVTQQALV,not soluble
18,MNVLRSGIVTMLLLAAFSVQAACTWPAWEQFKKDYISQEGRVIDPSDARKITTSEGQSYGMFSALAANDRAAFDNILDWTQNNLAQGSLKERLPAWLWGKKENSKWEVLDSNSASDGDVWMAWSLLEAGRLWKEQRYTDIGSALLKRIAREEVVTVPGLGSMLLPGKVGFAEDNSWRFNPSYLPPTLAQYFTRFGAPWTTLRETNQRLLLETAPKGFSPDWVRYEKDKGWQLKAEKTLISSYDAIRVYMWVGMMPDSDPQKARMLNRFKPMATFTEKNGYPPEKVDVATGKAQGKGPVGFSAAMLPFLQNRDAQAVQRQRVADNFPGSDAYYNYVLTLFGQGWDQHRFRFSTKGELLPDWGQECANSH,soluble
19,MNVNAETEDATLLLDGLLQNVAIIRFDTNKKVTYANALFAEAMGYTEEEMLQLSHPDLCFPDFVQTASYKEMWTNLLAGQKFQNKIERKNARGERVWFEATYIPIIREETVVGVAKIATDIT,not soluble
20,MNVTPWEVEGVIDYSKLIEEFGMQPFSEVLPEIDNPHILMRRGAIFGHRDYWRIIEAMQKKEPWAVMSGFMPSGLPHFGHKMTMDEIVWHQSAGGKAFVAIADMEAHSVRGLSWEKTRELGMLYIKSIIALGLREDAVIYFQSKSSHVKDLAFELSAEVNFSELRAIYGFNSDTSLAKMFVTAIQAADILHPQLSDFGGPKPVVVPVGADQDPHMRLTRDLAARISIFSFEPVEGGVRVRSRKGAEYLSSLRDLEFDKKIYEEHMDIFGEAEEIERAVRKIEVEIGGFAFIPPSSTYHRFTTGLTGGKMSSSKPESYISLLDPPEEGAKKVMKAFTGGRATAEEQRRLGGEPDRCVVFELYSFHLIDSDEELNQIEAECREGRLLCGKCKKMAAELVKSFLKEHQEKMEAVDLSNYTIIG,not soluble
21,MNVVFAVKQYISKMIEDSGPGMKVLLMDKETTGIVSMVYTQSEILQKEVYLFERIDSQNREIMKHLKAICFLRPTKENVDYIIQELRRPKYTIYFIYFSNVISKSDVKSLAEADEQEVVAEVQEFYGDYIAVNPHLFSLNILGCCQGRNWDPAQLSRTTQGLTALLLSLKKCPMIRYQLSSEAAKRLAECVKQVITKEYELFEFRRTEVPPLLLILDRCDDAITPLLNQWTYQAMVHELLGINNNRIDLSRVPGISKDLREVVLSAENDEFYANNMYLNFAEIGSNIKNLMEDFQKKKPKEQQKLESIADMKAFVENYPQFKKMSGTVSKHVTVVGELSRLVSERNLLEVSEVEQELACQNDHSSALQNIKRLLQNPKVTEFDAARLVMLYALHYERHSSNSLPGLMMDLRNKGVSEKYRKLVSAVVEYGGKRVRGSDLFSPKDAVAITKQFLKGLKGVENVYTQHQPFLHETLDHLIKGRLKENLYPYLGPSTLRDRPQDIIVFVIGGATYEEALTVYNLNRTTPGVRIVLGGTTVHNTKSFLEEVLASGLHSRSKESSQVTSRSASRR,not soluble
